Results published in PMC3431386, “Swi1 Associates with Chromatin through the DDT Domain and Recruits Swi3 to Preserve Genomic Integrity” (PLoS ONE, 2012).

Legend:
Assay in all cases: pull-down; anti-FLAG M2 agarose beads bound to Swi1-FLAG (purified from swi3Δ cells) mixed with His6-Swi3 in lysis buffer A (50 mM Tris-HCl pH 8.0, 150 mM NaCl, 0.1% NP-40, 10% glycerol), 1 hour at 4°C, washed three times, Western blotting with anti-FLAG or His6 antibody
Settings in all cases: both partners purified
[1] = target: T1, Swi1 (750–971)-5FLAG (S. pombe, UniProt Q9UUM2 750-971)
T1 construct: also called C-terminal Swi1; Swi1 C-terminal region; source: S. pombe swi3Δ cells, nmt1 promoter, purified on anti-FLAG M2 agarose (500 mM NaCl washes); not shown: 5FLAG, C-terminal, kept
T1 sequence (looked up): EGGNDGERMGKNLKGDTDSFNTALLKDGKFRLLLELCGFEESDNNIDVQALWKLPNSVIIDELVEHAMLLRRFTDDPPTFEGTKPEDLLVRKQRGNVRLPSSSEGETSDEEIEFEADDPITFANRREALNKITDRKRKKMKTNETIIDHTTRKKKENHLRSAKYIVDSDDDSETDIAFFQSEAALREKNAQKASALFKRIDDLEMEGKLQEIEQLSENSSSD

[2] = target: T2, Swi1 (250–550)-5FLAG (S. pombe, UniProt Q9UUM2 250-550)
T2 construct: Swi1, S. pombe, amino acids 250–550 (contains an NLS and the DDT domain); also called DDT domain-containing region; pREP-Swi1(250–550)-5FLAG; source: S. pombe swi3Δ cells, nmt1 promoter, purified on anti-FLAG M2 agarose (500 mM NaCl washes); not shown: 5FLAG, C-terminal, kept
T2 sequence (looked up): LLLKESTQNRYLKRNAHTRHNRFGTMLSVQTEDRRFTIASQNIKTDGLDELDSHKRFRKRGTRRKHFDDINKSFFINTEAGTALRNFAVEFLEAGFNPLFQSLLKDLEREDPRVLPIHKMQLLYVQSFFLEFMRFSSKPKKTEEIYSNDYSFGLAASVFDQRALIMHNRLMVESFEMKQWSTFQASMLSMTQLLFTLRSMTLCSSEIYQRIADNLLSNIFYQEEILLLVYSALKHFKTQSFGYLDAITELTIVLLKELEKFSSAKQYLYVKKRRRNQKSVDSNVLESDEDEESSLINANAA

[3] = target: T3, full-length Swi1 (1–971)-5FLAG (overexpressed from the nmt1 promoter) (S. pombe, UniProt Q9UUM2 1-971)
T3 construct: also called pREP-Swi1-5FLAG; Swi1-FLAG; source: S. pombe swi3Δ cells, nmt1 promoter, purified on anti-FLAG M2 agarose (500 mM NaCl washes); not shown: 5FLAG, C-terminal, kept
T3 sequence (looked up): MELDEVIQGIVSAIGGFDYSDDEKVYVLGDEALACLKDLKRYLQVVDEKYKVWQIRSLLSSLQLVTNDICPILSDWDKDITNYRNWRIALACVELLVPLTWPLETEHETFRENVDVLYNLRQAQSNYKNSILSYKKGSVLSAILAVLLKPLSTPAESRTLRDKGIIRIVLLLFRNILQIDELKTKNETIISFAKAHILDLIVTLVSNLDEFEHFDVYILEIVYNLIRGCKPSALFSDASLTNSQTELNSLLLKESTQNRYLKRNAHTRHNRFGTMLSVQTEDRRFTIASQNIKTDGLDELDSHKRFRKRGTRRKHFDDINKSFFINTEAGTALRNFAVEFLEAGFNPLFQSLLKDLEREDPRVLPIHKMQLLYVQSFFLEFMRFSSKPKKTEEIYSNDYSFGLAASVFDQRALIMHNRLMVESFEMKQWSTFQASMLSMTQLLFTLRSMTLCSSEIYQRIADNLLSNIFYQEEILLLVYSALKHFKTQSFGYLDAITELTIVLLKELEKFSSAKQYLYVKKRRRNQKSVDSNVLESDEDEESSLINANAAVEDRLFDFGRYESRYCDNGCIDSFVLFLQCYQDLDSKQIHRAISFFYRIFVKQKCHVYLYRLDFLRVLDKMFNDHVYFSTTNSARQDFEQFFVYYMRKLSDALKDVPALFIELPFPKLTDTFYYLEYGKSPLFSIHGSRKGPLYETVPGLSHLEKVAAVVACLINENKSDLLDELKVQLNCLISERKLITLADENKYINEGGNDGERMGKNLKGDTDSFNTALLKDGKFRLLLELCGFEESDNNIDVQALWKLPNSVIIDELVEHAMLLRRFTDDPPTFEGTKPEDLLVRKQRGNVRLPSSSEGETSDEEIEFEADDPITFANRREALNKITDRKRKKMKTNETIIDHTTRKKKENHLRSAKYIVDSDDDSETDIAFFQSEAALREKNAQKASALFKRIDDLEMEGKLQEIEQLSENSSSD

Measured: binding result

B1: hexahistidine-tagged Swi3 (His6-Swi3) (natural protein, S. pombe, UniProt O14350 1-181, looked up)
chain: MSTAASDSGVEKLVEENKREEVKKNEEEKEFDLGLEENPDSVKKPRKRLAKFDEERLISENGIPKLRKMMRKVKLKGKGHEAKDLKQLLGMYHIWTHELYPRATFDDSISYLKTLGKHRSVKVRRRGWINEIAVENGSDSNASLFTGPSSNSLVNLTSGDPYVQDTADDAFVAQDNDTQLE
notes: Swi3, S. pombe; swi3 open reading frame in the NdeI/XhoI site of pET28a; also called recombinant Swi3; pET28a-Swi3; source: E. coli BL21(DE3), purified (Ni-NTA)
binds: all assays above
